Here are results for one molecule from paper PMC4191430 (Nucleic Acids Research, 2014).

The experiment concerns the target T1, HA-Fbxl5 (human (cDNA from A549 cells), UniProt Q9UKA1 1-691).
T1 sequence (looked up): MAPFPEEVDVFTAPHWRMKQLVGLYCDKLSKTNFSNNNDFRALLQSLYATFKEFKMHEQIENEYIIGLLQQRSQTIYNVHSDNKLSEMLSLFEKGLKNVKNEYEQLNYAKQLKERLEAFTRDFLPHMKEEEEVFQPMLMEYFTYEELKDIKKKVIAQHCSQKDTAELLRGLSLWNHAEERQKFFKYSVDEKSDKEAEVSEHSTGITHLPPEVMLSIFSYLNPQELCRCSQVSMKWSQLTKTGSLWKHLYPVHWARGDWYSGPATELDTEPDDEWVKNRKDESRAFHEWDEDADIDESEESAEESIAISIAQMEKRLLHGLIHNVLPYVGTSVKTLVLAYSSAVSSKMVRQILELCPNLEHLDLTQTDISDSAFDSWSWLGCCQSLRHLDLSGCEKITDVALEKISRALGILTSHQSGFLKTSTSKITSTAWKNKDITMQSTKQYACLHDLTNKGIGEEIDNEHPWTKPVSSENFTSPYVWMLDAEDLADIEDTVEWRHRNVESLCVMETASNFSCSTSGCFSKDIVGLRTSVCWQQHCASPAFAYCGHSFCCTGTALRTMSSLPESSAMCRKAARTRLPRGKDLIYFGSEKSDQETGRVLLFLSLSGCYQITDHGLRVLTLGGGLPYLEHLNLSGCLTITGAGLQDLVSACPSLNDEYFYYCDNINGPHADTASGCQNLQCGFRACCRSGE
As to the kind of experiment: pull-down.

B1: GST-hSSB1 (natural protein, human (cDNA from A549 cells), UniProt Q9BQ15 1-211, looked up)
chain: MTTETFVKDIKPGLKNLNLIFIVLETGRVTKTKDGHEVRTCKVADKTGSINISVWDDVGNLIQPGDIIRLTKGYASVFKGCLTLYTGRGGDLQKIGEFCMVYSEVPNFSEPNPEYSTQQAPNKAVQNDSNPSASQPTTGPSAASPASENQNGNGLSAPPGPGGGPHPPHTPSHPPSTRITRSQPNHTPAGPPGPSSNPVSNGKETRRSSKR
For B1, the binding result was “binds”.
